Test results published in the supplement of paper PMC10567573.

B1: COX4I1 (parent)
chain: VAHVKHLSASQKALKEKEKASWSS

Variants of: B1
Experiment: protein stability index of a GFP-peptide fusion (GPS, HEK-293T) (PSI 1-6); higher = more stable
Conditions: c terminus: a fixed tail appended
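Further: lentivirally expressed fusions sorted by FACS into six bins by GFP to DsRed ratio, PSI derived from sequencing read proportions per bin multiplied by bin number.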

Q: With VAHVKHLRASQKALKEKEKASWSS [S8R] as the variant, how does the protein stability index read?
A: 3.11

Q: For VAHVKHLDASQKALKEKEKASWSS [S8D], which protein stability index is on record?
A: 3.86

Q: With VAHVKHLMASQKALKEKEKASWSS [S8M] as the variant, how does the protein stability index read?
A: 2.92

Q: Which protein stability index does the source give for VAHVKHLPASQKALKEKEKASWSS [S8P] here?
A: 3.62

Q: Which protein stability index does the source give for VAHVKHLAASQKALKEKEKASWSS [S8A] here?
A: 3.57

Q: With VAHVKHLEASQKALKEKEKASWSS [S8E] as the variant, how does the protein stability index read?
A: 3.6

Q: Which protein stability index does the source give for VAHVKHLLASQKALKEKEKASWSS [S8L] here?
A: 3.02

Q: With VAHVKHLYASQKALKEKEKASWSS [S8Y] as the variant, how does the protein stability index read?
A: 2.55

Q: Which protein stability index does the source give for VAHVKHLQASQKALKEKEKASWSS [S8Q] here?
A: 3.24

Q: With VAHVKHLWASQKALKEKEKASWSS [S8W] as the variant, how does the protein stability index read?
A: 2.35

Q: Which protein stability index does the source give for VAHVKHLHASQKALKEKEKASWSS [S8H] here?
A: 3.22

Q: For VAHVKHLFASQKALKEKEKASWSS [S8F], which protein stability index is on record?
A: 2.2

Q: Which protein stability index does the source give for VAHVKHLCASQKALKEKEKASWSS [S8C] here?
A: 2.41

Q: For VAHVKHLIASQKALKEKEKASWSS [S8I], which protein stability index is on record?
A: 3.1

Q: Which protein stability index does the source give for VAHVKHLTASQKALKEKEKASWSS [S8T] here?
A: 3.1

Q: Which protein stability index does the source give for VAHVKHLVASQKALKEKEKASWSS [S8V] here?
A: 2.7

Q: For VAHVKHLGASQKALKEKEKASWSS [S8G], which protein stability index is on record?
A: 3.64

Q: With VAHVKHLKASQKALKEKEKASWSS [S8K] as the variant, how does the protein stability index read?
A: 3.46

Q: With VAHVKHLNASQKALKEKEKASWSS [S8N] as the variant, how does the protein stability index read?
A: 3.53

Q: With VAHGKHLSASQKALKEKEKASWSS [V4G] as the variant, how does the protein stability index read?
A: 3.47

Q: Which protein stability index does the source give for VAHSKHLSASQKALKEKEKASWSS [V4S] here?
A: 3.35

Q: Which protein stability index does the source give for VAHTKHLSASQKALKEKEKASWSS [V4T] here?
A: 4.15

Q: For VAHLKHLSASQKALKEKEKASWSS [V4L], which protein stability index is on record?
A: 2.88

Q: For VAHCKHLSASQKALKEKEKASWSS [V4C], which protein stability index is on record?
A: 3.34

Q: With VAHDKHLSASQKALKEKEKASWSS [V4D] as the variant, how does the protein stability index read?
A: 3.45

Q: Which protein stability index does the source give for VAHQKHLSASQKALKEKEKASWSS [V4Q] here?
A: 2.73

Q: Which protein stability index does the source give for VAHHKHLSASQKALKEKEKASWSS [V4H] here?
A: 3.74

Q: For VAHNKHLSASQKALKEKEKASWSS [V4N], which protein stability index is on record?
A: 3.64

Q: Which protein stability index does the source give for VAHFKHLSASQKALKEKEKASWSS [V4F] here?
A: 2.83

Q: For VAHMKHLSASQKALKEKEKASWSS [V4M], which protein stability index is on record?
A: 3.55

Q: With VAHWKHLSASQKALKEKEKASWSS [V4W] as the variant, how does the protein stability index read?
A: 3.25

Q: With VAHYKHLSASQKALKEKEKASWSS [V4Y] as the variant, how does the protein stability index read?
A: 3.27

Q: With VAHIKHLSASQKALKEKEKASWSS [V4I] as the variant, how does the protein stability index read?
A: 3.03

Q: With VAHEKHLSASQKALKEKEKASWSS [V4E] as the variant, how does the protein stability index read?
A: 3.71

Q: Which protein stability index does the source give for VAHRKHLSASQKALKEKEKASWSS [V4R] here?
A: 2.91

Q: With VAHKKHLSASQKALKEKEKASWSS [V4K] as the variant, how does the protein stability index read?
A: 3.48

Q: With VAHAKHLSASQKALKEKEKASWSS [V4A] as the variant, how does the protein stability index read?
A: 4.1

Q: Which protein stability index does the source give for NAHVKHLSASQKALKEKEKASWSS [V1N] here?
A: 3.96

Q: Which protein stability index does the source give for PAHVKHLSASQKALKEKEKASWSS [V1P] here?
A: 3.53

Q: Which protein stability index does the source give for DAHVKHLSASQKALKEKEKASWSS [V1D] here?
A: 3.98

Q: With RAHVKHLSASQKALKEKEKASWSS [V1R] as the variant, how does the protein stability index read?
A: 3.83

Q: For MAHVKHLSASQKALKEKEKASWSS [V1M], which protein stability index is on record?
A: 3.05

Q: For QAHVKHLSASQKALKEKEKASWSS [V1Q], which protein stability index is on record?
A: 4.05

Q: For YAHVKHLSASQKALKEKEKASWSS [V1Y], which protein stability index is on record?
A: 2.7

Q: Which protein stability index does the source give for SAHVKHLSASQKALKEKEKASWSS [V1S] here?
A: 3.73

Q: With TAHVKHLSASQKALKEKEKASWSS [V1T] as the variant, how does the protein stability index read?
A: 4.03

Q: Which protein stability index does the source give for IAHVKHLSASQKALKEKEKASWSS [V1I] here?
A: 3.35

Q: Which protein stability index does the source give for CAHVKHLSASQKALKEKEKASWSS [V1C] here?
A: 3.06

Q: For WAHVKHLSASQKALKEKEKASWSS [V1W], which protein stability index is on record?
A: 2.41

Q: For FAHVKHLSASQKALKEKEKASWSS [V1F], which protein stability index is on record?
A: 2.34

Q: For EAHVKHLSASQKALKEKEKASWSS [V1E], which protein stability index is on record?
A: 3.79

Q: Which protein stability index does the source give for KAHVKHLSASQKALKEKEKASWSS [V1K] here?
A: 3.57

Q: For HAHVKHLSASQKALKEKEKASWSS [V1H], which protein stability index is on record?
A: 3.25

Q: With AAHVKHLSASQKALKEKEKASWSS [V1A] as the variant, how does the protein stability index read?
A: 3.05

Q: Which protein stability index does the source give for LAHVKHLSASQKALKEKEKASWSS [V1L] here?
A: 2.95

Q: Which protein stability index does the source give for GAHVKHLSASQKALKEKEKASWSS [V1G] here?
A: 4.06

Q: Which protein stability index does the source give for VASVKHLSASQKALKEKEKASWSS [H3S] here?
A: 3.27

Q: With VAYVKHLSASQKALKEKEKASWSS [H3Y] as the variant, how does the protein stability index read?
A: 2.7

Q: With VAWVKHLSASQKALKEKEKASWSS [H3W] as the variant, how does the protein stability index read?
A: 2.1

Q: Which protein stability index does the source give for VAAVKHLSASQKALKEKEKASWSS [H3A] here?
A: 3.44

Q: With VAVVKHLSASQKALKEKEKASWSS [H3V] as the variant, how does the protein stability index read?
A: 3.13

Q: Which protein stability index does the source give for VAMVKHLSASQKALKEKEKASWSS [H3M] here?
A: 3.43

Q: For VANVKHLSASQKALKEKEKASWSS [H3N], which protein stability index is on record?
A: 4.5

Q: With VAKVKHLSASQKALKEKEKASWSS [H3K] as the variant, how does the protein stability index read?
A: 3.16

Q: For VARVKHLSASQKALKEKEKASWSS [H3R], which protein stability index is on record?
A: 3.19

Q: For VALVKHLSASQKALKEKEKASWSS [H3L], which protein stability index is on record?
A: 2.6

Q: With VAEVKHLSASQKALKEKEKASWSS [H3E] as the variant, how does the protein stability index read?
A: 4.11

Q: Which protein stability index does the source give for VAQVKHLSASQKALKEKEKASWSS [H3Q] here?
A: 3.28

Q: With VAFVKHLSASQKALKEKEKASWSS [H3F] as the variant, how does the protein stability index read?
A: 2.52

Q: For VADVKHLSASQKALKEKEKASWSS [H3D], which protein stability index is on record?
A: 4.11

Q: For VAIVKHLSASQKALKEKEKASWSS [H3I], which protein stability index is on record?
A: 2.58

Q: Which protein stability index does the source give for VATVKHLSASQKALKEKEKASWSS [H3T] here?
A: 3.77

Q: With VACVKHLSASQKALKEKEKASWSS [H3C] as the variant, how does the protein stability index read?
A: 2.75

Q: For VAPVKHLSASQKALKEKEKASWSS [H3P], which protein stability index is on record?
A: 3.73

Q: With VAGVKHLSASQKALKEKEKASWSS [H3G] as the variant, how does the protein stability index read?
A: 3.22

Q: For VAHVKFLSASQKALKEKEKASWSS [H6F], which protein stability index is on record?
A: 2.78

Q: With VAHVKLLSASQKALKEKEKASWSS [H6L] as the variant, how does the protein stability index read?
A: 3.3

Q: Which protein stability index does the source give for VAHVKDLSASQKALKEKEKASWSS [H6D] here?
A: 3.81

Q: Which protein stability index does the source give for VAHVKPLSASQKALKEKEKASWSS [H6P] here?
A: 3.98

Q: For VAHVKILSASQKALKEKEKASWSS [H6I], which protein stability index is on record?
A: 3.24

Q: Which protein stability index does the source give for VAHVKQLSASQKALKEKEKASWSS [H6Q] here?
A: 4.45

Q: With VAHVKCLSASQKALKEKEKASWSS [H6C] as the variant, how does the protein stability index read?
A: 3.21

Q: For VAHVKKLSASQKALKEKEKASWSS [H6K], which protein stability index is on record?
A: 3.51

Q: Which protein stability index does the source give for VAHVKVLSASQKALKEKEKASWSS [H6V] here?
A: 2.96

Q: For VAHVKTLSASQKALKEKEKASWSS [H6T], which protein stability index is on record?
A: 2.97

Q: For VAHVKNLSASQKALKEKEKASWSS [H6N], which protein stability index is on record?
A: 3.38

Q: With VAHVKRLSASQKALKEKEKASWSS [H6R] as the variant, how does the protein stability index read?
A: 3.41

Q: For VAHVKMLSASQKALKEKEKASWSS [H6M], which protein stability index is on record?
A: 3.12

Q: For VAHVKYLSASQKALKEKEKASWSS [H6Y], which protein stability index is on record?
A: 2.5

Q: For VAHVKWLSASQKALKEKEKASWSS [H6W], which protein stability index is on record?
A: 2.32

Q: Which protein stability index does the source give for VAHVKELSASQKALKEKEKASWSS [H6E] here?
A: 3.87

Q: Which protein stability index does the source give for VAHVKGLSASQKALKEKEKASWSS [H6G] here?
A: 3.45

Q: For VAHVKALSASQKALKEKEKASWSS [H6A], which protein stability index is on record?
A: 3.24

Q: For VAHVKSLSASQKALKEKEKASWSS [H6S], which protein stability index is on record?
A: 3.38
